Experimental data published in patent US20140274782A1, “AFFINITY REAGENTS AND METHODS FOR DETECTION, PURIFICATION, AND PROTEOMIC ANALYSIS OF METHYLATED PROTEINS” (The Board of Trustees of the Leland Stanford Junior …, priority 2013, published 2014).

Assays:
[1] = test system: 3×MBT domain of L3MBTL1; assay: Triple SILAC pull-down, 3xMBT/3xMBTD355N ratio (cytoplasmic, nuclear and chromatin fractions of 293T cells); format: binding, human; settings: for 3xMBT/D355N UNC Heavy: experiment with UNC0638 in heavy SILAC media; for 3xMBT/D355N UNC Light: experiment with UNC0638 in light SILAC media;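 as to all read-outs here: proteins quantified with MaxQuant, requiring at least two unique peptides and quantification in both label directions, normalized to the mean of proteins from a digested loading control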
[2] = target: T1, G9a and GLP (Homo sapiens, UniProt Q96KQ7+Q9H9B1); assay: Triple SILAC pull-down after UNC0638 treatment of 293T cells, DMSO/UNC0638 ratio of protein captured by 3×MBT; format: cell-based; settings: for Relative to UNC0638 UNC Heavy: UNC0638 in heavy SILAC media; for Relative to UNC0638 UNC Light: UNC0638 in light SILAC media; for Relative to UNC0638 Average: average of UNC Light and UNC Heavy experiments;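 as to all read-outs here: mass spectrometry (Q-Exactive) SILAC quantitation, DMSO/UNC0638 ratio computed after subtracting 3×MBTD355N mutant pull-down background, only proteins with at least twofold 3×MBT over mutant signal considered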
T1 construct: endogenous in cells; host or cells: HEK 293T
T1 sequence (Q96KQ7 2-1210 limits assumed): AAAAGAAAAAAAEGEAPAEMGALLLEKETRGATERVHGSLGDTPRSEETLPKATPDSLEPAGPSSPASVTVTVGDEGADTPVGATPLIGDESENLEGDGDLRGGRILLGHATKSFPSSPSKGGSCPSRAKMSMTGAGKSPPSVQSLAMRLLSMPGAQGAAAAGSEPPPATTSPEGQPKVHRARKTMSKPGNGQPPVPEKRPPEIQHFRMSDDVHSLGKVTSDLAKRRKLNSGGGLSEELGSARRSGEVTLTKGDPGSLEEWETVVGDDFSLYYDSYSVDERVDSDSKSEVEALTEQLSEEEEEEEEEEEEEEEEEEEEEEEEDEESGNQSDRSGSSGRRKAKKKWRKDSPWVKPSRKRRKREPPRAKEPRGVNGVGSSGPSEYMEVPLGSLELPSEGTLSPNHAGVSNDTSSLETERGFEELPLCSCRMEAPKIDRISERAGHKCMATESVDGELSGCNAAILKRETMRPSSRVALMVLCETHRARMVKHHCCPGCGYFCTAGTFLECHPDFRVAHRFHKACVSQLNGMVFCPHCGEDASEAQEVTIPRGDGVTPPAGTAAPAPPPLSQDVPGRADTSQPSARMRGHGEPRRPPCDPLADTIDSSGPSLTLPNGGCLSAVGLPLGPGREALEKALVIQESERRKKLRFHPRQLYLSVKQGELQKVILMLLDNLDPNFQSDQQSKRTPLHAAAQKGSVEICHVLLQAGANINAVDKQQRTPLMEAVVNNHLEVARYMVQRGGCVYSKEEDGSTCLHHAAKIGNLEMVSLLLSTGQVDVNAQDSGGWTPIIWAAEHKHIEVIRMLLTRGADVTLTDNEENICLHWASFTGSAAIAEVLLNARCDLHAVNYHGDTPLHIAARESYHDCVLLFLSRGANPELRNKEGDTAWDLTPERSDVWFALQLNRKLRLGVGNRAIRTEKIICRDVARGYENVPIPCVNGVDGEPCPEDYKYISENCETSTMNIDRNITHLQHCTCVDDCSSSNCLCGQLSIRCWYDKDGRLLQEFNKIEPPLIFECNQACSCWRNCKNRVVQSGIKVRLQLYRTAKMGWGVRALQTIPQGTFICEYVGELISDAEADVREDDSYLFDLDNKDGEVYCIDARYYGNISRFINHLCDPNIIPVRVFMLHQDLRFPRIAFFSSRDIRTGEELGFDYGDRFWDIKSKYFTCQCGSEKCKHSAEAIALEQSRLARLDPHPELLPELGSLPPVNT
T1 sequence (Q9H9B1 2-1298 limits assumed): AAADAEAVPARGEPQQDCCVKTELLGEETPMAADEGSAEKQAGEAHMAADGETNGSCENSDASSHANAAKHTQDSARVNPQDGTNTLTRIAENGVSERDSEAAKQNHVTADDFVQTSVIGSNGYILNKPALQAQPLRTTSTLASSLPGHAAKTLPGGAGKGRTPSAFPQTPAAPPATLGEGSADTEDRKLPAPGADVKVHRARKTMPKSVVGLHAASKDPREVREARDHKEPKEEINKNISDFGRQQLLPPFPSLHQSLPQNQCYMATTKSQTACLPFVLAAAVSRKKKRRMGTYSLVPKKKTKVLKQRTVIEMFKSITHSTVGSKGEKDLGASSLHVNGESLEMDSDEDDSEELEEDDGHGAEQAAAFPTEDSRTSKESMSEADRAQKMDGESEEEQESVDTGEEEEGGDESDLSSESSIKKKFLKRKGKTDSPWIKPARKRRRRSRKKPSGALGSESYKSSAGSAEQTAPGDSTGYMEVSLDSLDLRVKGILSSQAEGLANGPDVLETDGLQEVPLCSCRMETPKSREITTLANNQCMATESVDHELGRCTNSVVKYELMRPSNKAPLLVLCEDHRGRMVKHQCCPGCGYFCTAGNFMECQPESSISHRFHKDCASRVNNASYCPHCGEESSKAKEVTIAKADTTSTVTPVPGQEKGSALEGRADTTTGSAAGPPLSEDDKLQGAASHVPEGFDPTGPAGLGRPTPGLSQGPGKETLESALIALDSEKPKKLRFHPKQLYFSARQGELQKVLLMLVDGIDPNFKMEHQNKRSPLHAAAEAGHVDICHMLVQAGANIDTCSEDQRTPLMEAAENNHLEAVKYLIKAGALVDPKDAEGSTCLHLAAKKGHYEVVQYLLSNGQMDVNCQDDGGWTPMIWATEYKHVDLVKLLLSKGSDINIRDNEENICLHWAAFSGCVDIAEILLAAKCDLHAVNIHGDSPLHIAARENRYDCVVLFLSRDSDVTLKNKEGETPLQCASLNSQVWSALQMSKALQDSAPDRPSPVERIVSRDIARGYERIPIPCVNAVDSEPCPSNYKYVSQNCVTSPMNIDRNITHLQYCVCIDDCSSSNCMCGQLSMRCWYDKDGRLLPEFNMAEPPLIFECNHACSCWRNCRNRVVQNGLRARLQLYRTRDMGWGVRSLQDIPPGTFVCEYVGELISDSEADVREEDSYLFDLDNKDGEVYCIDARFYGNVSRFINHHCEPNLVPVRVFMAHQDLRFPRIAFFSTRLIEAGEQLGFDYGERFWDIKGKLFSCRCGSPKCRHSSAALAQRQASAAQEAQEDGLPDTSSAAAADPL

[3] = SILAC ratio, pull-down 3xMBT vs 3xMBTD355N
[4] = SILAC ratio DMSO/UNC0638 of protein pulled down with 3xMBT
[5] = SILAC ratio 3xMBT vs 3xMBTD355N pull-down, 293T cells, all values in log base 2
[6] = SILAC ratio DMSO relative to UNC0638, pull-down with 3xMBT, all values in log base 2

Row | Substance | Relative to UNC0638 UNC Heavy [2, 4] [log base 2] | Relative to UNC0638 UNC Light [2, 4] [log base 2] | Relative to UNC0638 Average [2] [log base 2] | Relative to UNC0638 UNC Heavy [2, 6] [log base 2] | Relative to UNC0638 UNC Light [2, 6] [log base 2] | Relative to UNC0638 Average ([2]; all values in log base 2) [log base 2] | Protein Ratios DMSO/UNC0638 ([2]; SILAC ratio of protein captured by 3xMBT, 293T cells treated 24 hours with UNC0638 at 2.5 μM or DMSO) | 3xMBT/D355N UNC Heavy [1, 3] [log base 2] | 3xMBT/D355N UNC Light [1, 3] [log base 2] | 3xMBT/D355N UNC Heavy [1, 5] [log base 2] | 3xMBT/D355N UNC Light [1, 5] [log base 2] | Protein Ratios 3xMBT/D355N ([1]; SILAC ratio, pull-down by 3xMBT vs 3xMBTD355N, 293T cells)
1 | SNRPA | 0.16 | 0.11 | 0.14 | – | – | – | – | 4.73 | 5.10 | – | – | –
2 | SRSF3 | 0.25 | 0.23 | 0.24 | – | – | – | – | 2.63 | 2.55 | – | – | –
3 | SUPT16H | 0.04 | 0.23 | 0.13 | – | – | – | – | 3.66 | 4.01 | – | – | –
4 | SWI/SNF-related matrix-associated actin-dependent regulator of chromatin subfamily A member 5 | – | – | – | – | – | – | 1.3 | – | – | – | – | 5.8
5 | THOC2 | 0.64 | −0.05 | 0.30 | – | – | – | – | 2.50 | 2.01 | – | – | –
6 | TOP2A | 0.42 | −0.18 | 0.12 | – | – | – | – | 2.56 | 2.96 | – | – | –
7 | TRIM25 | 0.05 | 0.46 | 0.25 | – | – | – | – | 1.88 | 0.76 | – | – | –
8 | TRIP12 | 0.46 | −0.24 | 0.11 | – | – | – | – | 0.66 | 1.34 | – | – | –
9 | TUBB | 0.31 | 0.14 | 0.22 | – | – | – | – | 1.16 | 1.42 | – | – | –
10 | TUBB4B | 0.42 | 0.03 | 0.23 | – | – | – | – | 1.05 | 1.75 | – | – | –
11 | USP10 | 0.57 | −0.05 | 0.26 | – | – | – | – | 2.00 | 2.13 | – | – | –
12 | YWHAE | 0.58 | −0.12 | 0.23 | – | – | – | – | 1.86 | 2.52 | – | – | –
13 | ZFR | 0.09 | 0.13 | 0.11 | – | – | – | – | 2.89 | 3.14 | – | – | –
14 | ZNF207 | 0.34 | 0.09 | 0.21 | – | – | – | – | 2.48 | 3.12 | – | – | –

Further lines, with some results ahead:

Row | Relative to UNC0638 UNC Heavy [2, 4] [log base 2] | Relative to UNC0638 UNC Light [2, 4] [log base 2] | Relative to UNC0638 Average [2] [log base 2] | Relative to UNC0638 UNC Heavy [2, 6] [log base 2] | Relative to UNC0638 UNC Light [2, 6] [log base 2] | Relative to UNC0638 Average ([2]; all values in log base 2) [log base 2] | Protein Ratios DMSO/UNC0638 ([2]; SILAC ratio of protein captured by 3xMBT, 293T cells treated 24 hours with UNC0638 at 2.5 μM or DMSO) | Substance | 3xMBT/D355N UNC Heavy [1, 3] [log base 2] | 3xMBT/D355N UNC Light [1, 3] [log base 2] | 3xMBT/D355N UNC Heavy [1, 5] [log base 2] | 3xMBT/D355N UNC Light [1, 5] [log base 2] | Protein Ratios 3xMBT/D355N ([1]; SILAC ratio, pull-down by 3xMBT vs 3xMBTD355N, 293T cells)
15 | – | – | – | 0.24 | −0.15 | 0.05 | – | STRAP | – | – | 1.61 | 1.80 | –
16 | 0.18 | 0.21 | 0.20 | – | – | – | – | TARDBP | 2.44 | 2.40 | – | – | –
17 | 0.16 | 0.22 | 0.19 | – | – | – | – | TFG | 4.21 | 4.03 | – | – | –
18 | 0.21 | 0.21 | 0.21 | – | – | – | – | TOP2B | 1.61 | 2.04 | – | – | –
19 | – | – | – | 0.54 | −0.45 | 0.04 | – | UHRF1 | – | – | 3.68 | 2.24 | –
20 | 0.21 | 0.03 | 0.12 | – | – | – | – | VRK1 | 2.10 | 2.56 | – | – | –
21 | 0.14 | 0.17 | 0.15 | – | – | – | – | XRCC5 | 2.15 | 2.80 | – | – | –
